Assay results from PMC3322552.

Biological target: Caulobacter crescentus ScsC with a His tag, without signal sequence (Caulobacter crescentus)
Experiment: SEC

stoichiometry N: 2
Substance: Caulobacter crescentus ScsC with a His tag, without signal sequence (natural protein)
